Experimental data from PMC4569726.

How the values were obtained:
[1] = target: RSV F single-chain double mutant with fibritin trimerization domain (SC-DM: N67I, S215P) (respiratory syncytial virus strain A2 (subgroup A) | not stated); test: SEC-MALS + native gel or EMSA; purified protein; SEC-MALS: 40 μg on TSK-Gel G3000SWxl in 150 mM NaPi, 50 mM NaCl, pH 7.0; NativePAGE Bis-Tris gel
[2] = target: RSV F single-chain triple mutant with fibritin trimerization domain (SC-TM: N67I, S215P, E487Q) (respiratory syncytial virus strain A2 (subgroup A) | not stated); test: as above
[3] = target: Soluble, stabilized processed RSV F variant with fibritin motif (PR-TM: N67I, S215P, D486N) (respiratory syncytial virus strain A2 (subgroup A) | not stated); test: SDS-PAGE without reducing agents and without boiling, Western blot; samples treated with standard 0.1% SDS buffer at room temperature

## RSV F single-chain double mutant with fibritin trimerization domain (SC-DM: N67I, S215P) (domain or fragment)
[1]
  stoichiometry N: 3

## RSV F single-chain triple mutant with fibritin trimerization domain (SC-TM: N67I, S215P, E487Q) (domain or fragment)
[2]
  stoichiometry N: 3

## Soluble, stabilized processed RSV F variant with fibritin motif (PR-TM: N67I, S215P, D486N) (domain or fragment)
[3]
  percent monomerized by 0.1% SDS: 50%
